Measurements as given in patent publication US20120135912A1 (PERSEID THERAPEUTICS, published 2012).

Key:
[1] = target: T1, human LPAM-1-Fc (alpha4-Fc/beta7-Fc heterodimer) (human); test: SPR (BIACORE), LPAM-1-Fc captured by anti-human IgG, 1 mM MnCl2, 1:1 Langmuir
T1 construct: Soluble heterodimer from CHO cells, Protein A purified
Method: (§1) The kinetic 2D-VCAM-1 assay measures binding kinetics of a dimeric ligand (e.g., VLA-Fc fusion protein or LPAM-1-Fc fusion protein) coated to sensor chips and monomeric analyte (e.g., 2D-VCAM-1 variant polypeptides) in the mobile phase. Goat anti-human IgG antibody (Jackson ImmunoResearch, Catalog No. 105-005-098) was immobilized on CM-5 sensor chips (GE Healthcare, Catalog No. BR-1000-14) according to the manufacturer's protocol. Antibody was diluted to 30 μg/ml in immobilization buffer (10 mM sodium acetate, pH 5.0 (GE Healthcare, Catalog No. BR-1003-51)). […] Un-reacted sites were quenched with 35 μl of 1 M ethanolamine-HCl pH 8.5 (GE Healthcare, Catalog No. BR-1000-50). This procedure typically yielded 15,000 response units (RU) of coupled antibody. VLA4-Fc or LPAM-1-Fc, prepared as described in Examples 3 and 4, respectively, were bound to antibody-coated sensor chips by injection of 20 μl of ligand solution (20 μg/ml protein in HBS-P-Mn buffer at a flow rate of 10 μl/min). Ligand capture levels were typically 200-300 RU. 2D-VCAM-1 variant polypeptides were diluted in HBS-P-Mn and flowed over ligand-coated sensor chips for 2 min at 30 μl/min, followed by 5 min incubation with in HBS-P-Mn containing no protein at the same flow rate. For 2D-VCAM-1 variant polypeptides having very slow dissociation rates from VLA4-Fc or LPAM-1-Fc, kinetic assays were also conducted using longer dissociation times (e.g., 20 min). Rmax signal levels for 2D-VCAM-1 variant polypeptides ranged from approximately 5-25 RU. Regeneration between cycles was performed by 200 sec incubation with 10 mM glycine buffer (pH 1.7) at 50 μl/min. New chips were subjected to 4-5 cycles of capture/binding/regeneration prior to use in actual experiments. Data from a reference cell containing goat anti-human IgG capture antibody alone was subtracted from data obtained from flow cells containing captured VLA4-Fc or LPAM-1-Fc. Typically, 8 dilutions of 2D-VCAM-1 variant polypeptides ranging from 150 nM to 0.069 nM were analyzed against a blank reference (HBS-P-Mn buffer alone).

[2] = target: T1, human LPAM-1-Fc (alpha4-Fc/beta7-Fc …); test: ELISA, LPAM-1-Fc coated, 1 mM MnCl2; from EC50 values
Method: The relative binding affinities of various 2D-VCAM variant proteins to immobilized LPAM-1-Fc (α4-Fc/β-7-Fc) heterodimer, relative to a control protein (e.g., Q38L-2D-VCAM-1 or human 2D-VCAM-1), were determined using a solid-phase ELISA assay. MAXISORP™ ELISA plates (NUNC) were coated overnight at 4° C. with 50 ul LPAM-1-Fc heterodimer (2 ug/ml in TBS-M, TBS (25 mM TRIS-HCl pH 7.5, 150 mM NaCl with 1 mM MnCl2), washed with TBS-T (TBS with 0.05% Tween-20), blocked with 200 ul 3% milk in TBS-M for 1 hr at room temperature, and washed again with TBS-T. A four-fold dilution series of the purified 2D-VCAM-1 variants to he assayed was made in COSTAR U-bottom plates in TBS-TMC (TBS with 0.05% Tween-20, 1 mM MnCl2 and 1% casein; Sigma) with a starting concentration of 8.2 uM (200 ug/ml). The dilution, series were transferred into the ELISA plate which was incubated at room temperature for 2 h and subsequently washed with TBS-T. Bound 2D-VCAM-1 protein was detected by incubation with 0.5 ug/ml of biotinylated anti-human VCAM antibody (R&D Systems, Catalog No. BAF809) in TBS-TMC for 1 h at room temperature followed by a TBS-T wash and subsequent incubation with 1:2000 dilution of streptavidin-HRP (BD Biosciences, Catalog No. 554066) in TBS-TMC for 30 min at room temperature. […] Typical development times ranged from 5-15 min and development was stopped by addition of 50 ul 2M H₂SO₄ (EM, Catalog No. SX1244-75). […] Fold-improvement in binding was calculated relative to a control protein (Q38L-2D-VCAM-1) assayed on the same plate.

[3] = target: T1, human LPAM-1-Fc (alpha4-Fc/beta7-Fc …); test: SPR (BIACORE), retest with new polypeptide preparations and new LPAM-1-Fc
Method: In this screening method, Biacore sensor chips were derivatized with anti-human IgG. After capture of VLA4-Fc or LPAM-1-Fc ligands on these surfaces, 2D-VCAM-1 variant polypeptides in buffer were allowed to flow over the ligand-coated sensor chips. The ability of a 2D-VCAM variant polypeptide to bind to a specific binding partner (i.e., VLA4-Fc or LPAM-1-Fc) was evaluated. Control protein (i.e., human 2D-VCAM-1 polypeptide (SEQ ID NO:2) or Q38L-2D-VCAM-1 polypeptide (SEQ ID NO:10)), was also allowed to flow over the ligand-coated sensor chips and the abilities of these molecules to bind to VLA4-Fc or LPAM-1-Fc were similarly evaluated for comparison. Using the Biacore system, the association (kₒₙ) and dissociation (koff) rate constant of the protein of interest binding to VLA4-Fc or LPAM-1-Fc ligands can be evaluated and used to calculate the equilibrium dissociation constant, KD. Variant 2D-VCAM-1 polypeptides having increased binding affinities for VLA4-Fc and/or LPAM-1-Fc, compared to human 2D-VCAM-1 and/or Q38L-2D-VCAM-1, were identified.
All BIACORE analyses were performed on a BIACORE 2000 system or BIACORE 3000 system (GE Healthcare) at room temperature (RT, 25° C.), HBS-P buffer (10 mM Hepes (pH 7.4), 150 mM NaCl, 0.005% surfactant P20) supplemented with 1 mM MnCl₂ (HBS-P-Mn) was used as the flow buffer for all experiments except where indicated.
Table 6B presents binding affinities of representative 2D-VCAM-1 variant polypeptides of the invention to LPAM-1-Fc when retested with new polypeptide preparations and new LPAM-1-Fc ligand and measured by the standard BICORE assay described above. The controls human 2D-VCAM-1 or the Q38L 2D-VCAM-1 polypeptide was not reassayed.

[4] = target: T2, human VLA4-Fc (alpha4-Fc/beta1-Fc heterodimer) (human); test: SPR (BIACORE), VLA4-Fc captured by anti-human IgG, 1 mM MnCl2, 1:1 Langmuir
T2 construct: Soluble heterodimer from CHO cells, Protein A purified; also called VLA-Fc
Method: as §1

T1 sequence (chain, as listed by the source limits assumed, chain 1 of 2): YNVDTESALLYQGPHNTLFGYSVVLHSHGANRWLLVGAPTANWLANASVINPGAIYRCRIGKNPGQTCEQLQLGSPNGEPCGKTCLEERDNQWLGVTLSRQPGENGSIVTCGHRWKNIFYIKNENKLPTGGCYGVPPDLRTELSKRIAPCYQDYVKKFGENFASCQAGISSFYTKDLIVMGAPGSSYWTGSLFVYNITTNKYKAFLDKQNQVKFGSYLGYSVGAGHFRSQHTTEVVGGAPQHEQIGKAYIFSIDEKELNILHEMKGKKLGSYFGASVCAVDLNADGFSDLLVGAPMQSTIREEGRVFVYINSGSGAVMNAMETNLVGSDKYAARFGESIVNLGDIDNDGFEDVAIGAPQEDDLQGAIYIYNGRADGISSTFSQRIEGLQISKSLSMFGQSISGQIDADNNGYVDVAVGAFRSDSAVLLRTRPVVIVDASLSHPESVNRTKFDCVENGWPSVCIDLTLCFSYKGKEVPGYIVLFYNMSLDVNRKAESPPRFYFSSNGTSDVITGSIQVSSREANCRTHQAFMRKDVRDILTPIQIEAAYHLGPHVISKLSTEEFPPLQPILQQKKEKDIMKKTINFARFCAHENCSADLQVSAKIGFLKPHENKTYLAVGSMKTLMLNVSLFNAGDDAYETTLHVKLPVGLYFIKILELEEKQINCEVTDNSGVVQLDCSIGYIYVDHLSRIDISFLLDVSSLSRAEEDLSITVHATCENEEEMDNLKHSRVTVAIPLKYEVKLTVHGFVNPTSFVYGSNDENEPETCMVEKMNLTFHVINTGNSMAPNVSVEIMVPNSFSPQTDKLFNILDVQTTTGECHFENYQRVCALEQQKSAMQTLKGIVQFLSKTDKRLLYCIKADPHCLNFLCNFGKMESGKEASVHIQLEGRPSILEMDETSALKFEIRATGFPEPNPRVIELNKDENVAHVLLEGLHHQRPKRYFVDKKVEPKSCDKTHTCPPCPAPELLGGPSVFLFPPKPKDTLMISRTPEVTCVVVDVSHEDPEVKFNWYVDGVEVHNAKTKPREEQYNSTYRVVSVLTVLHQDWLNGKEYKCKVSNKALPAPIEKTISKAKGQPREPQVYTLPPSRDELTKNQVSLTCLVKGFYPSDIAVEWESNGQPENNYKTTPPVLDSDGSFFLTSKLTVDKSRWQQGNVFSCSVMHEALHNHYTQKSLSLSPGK
T1 sequence (chain, as listed by the source limits assumed, chain 2 of 2): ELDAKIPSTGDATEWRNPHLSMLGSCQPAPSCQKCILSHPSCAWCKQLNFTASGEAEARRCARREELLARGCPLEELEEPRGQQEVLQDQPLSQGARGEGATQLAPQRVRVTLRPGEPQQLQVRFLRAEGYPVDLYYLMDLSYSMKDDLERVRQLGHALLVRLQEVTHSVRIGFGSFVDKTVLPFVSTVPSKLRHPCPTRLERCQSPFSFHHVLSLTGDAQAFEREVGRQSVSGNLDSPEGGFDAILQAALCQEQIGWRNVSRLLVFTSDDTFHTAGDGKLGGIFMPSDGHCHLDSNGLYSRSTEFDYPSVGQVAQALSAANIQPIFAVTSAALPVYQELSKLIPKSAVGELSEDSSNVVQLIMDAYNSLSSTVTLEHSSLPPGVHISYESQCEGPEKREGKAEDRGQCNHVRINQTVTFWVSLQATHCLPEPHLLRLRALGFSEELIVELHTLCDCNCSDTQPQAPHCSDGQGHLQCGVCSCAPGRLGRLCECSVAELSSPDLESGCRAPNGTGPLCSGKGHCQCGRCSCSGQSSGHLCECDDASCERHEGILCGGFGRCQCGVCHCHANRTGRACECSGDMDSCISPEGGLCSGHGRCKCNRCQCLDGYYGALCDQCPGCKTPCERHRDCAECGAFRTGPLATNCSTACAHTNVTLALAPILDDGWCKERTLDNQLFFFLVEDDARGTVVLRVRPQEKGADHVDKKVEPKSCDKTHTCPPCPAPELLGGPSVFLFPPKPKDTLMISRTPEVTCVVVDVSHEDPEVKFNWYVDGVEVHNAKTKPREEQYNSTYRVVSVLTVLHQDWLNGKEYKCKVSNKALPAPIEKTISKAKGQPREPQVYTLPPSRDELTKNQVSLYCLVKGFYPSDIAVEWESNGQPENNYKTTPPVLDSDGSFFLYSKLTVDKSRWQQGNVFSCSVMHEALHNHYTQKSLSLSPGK
T2 sequence (chain, as listed by the source limits assumed, form in doubt, chain 1 of 2): as the sequence (chain, as listed by the source limits assumed, chain 1 of 2) above
T2 sequence (chain, as listed by the source limits assumed, form in doubt, chain 2 of 2): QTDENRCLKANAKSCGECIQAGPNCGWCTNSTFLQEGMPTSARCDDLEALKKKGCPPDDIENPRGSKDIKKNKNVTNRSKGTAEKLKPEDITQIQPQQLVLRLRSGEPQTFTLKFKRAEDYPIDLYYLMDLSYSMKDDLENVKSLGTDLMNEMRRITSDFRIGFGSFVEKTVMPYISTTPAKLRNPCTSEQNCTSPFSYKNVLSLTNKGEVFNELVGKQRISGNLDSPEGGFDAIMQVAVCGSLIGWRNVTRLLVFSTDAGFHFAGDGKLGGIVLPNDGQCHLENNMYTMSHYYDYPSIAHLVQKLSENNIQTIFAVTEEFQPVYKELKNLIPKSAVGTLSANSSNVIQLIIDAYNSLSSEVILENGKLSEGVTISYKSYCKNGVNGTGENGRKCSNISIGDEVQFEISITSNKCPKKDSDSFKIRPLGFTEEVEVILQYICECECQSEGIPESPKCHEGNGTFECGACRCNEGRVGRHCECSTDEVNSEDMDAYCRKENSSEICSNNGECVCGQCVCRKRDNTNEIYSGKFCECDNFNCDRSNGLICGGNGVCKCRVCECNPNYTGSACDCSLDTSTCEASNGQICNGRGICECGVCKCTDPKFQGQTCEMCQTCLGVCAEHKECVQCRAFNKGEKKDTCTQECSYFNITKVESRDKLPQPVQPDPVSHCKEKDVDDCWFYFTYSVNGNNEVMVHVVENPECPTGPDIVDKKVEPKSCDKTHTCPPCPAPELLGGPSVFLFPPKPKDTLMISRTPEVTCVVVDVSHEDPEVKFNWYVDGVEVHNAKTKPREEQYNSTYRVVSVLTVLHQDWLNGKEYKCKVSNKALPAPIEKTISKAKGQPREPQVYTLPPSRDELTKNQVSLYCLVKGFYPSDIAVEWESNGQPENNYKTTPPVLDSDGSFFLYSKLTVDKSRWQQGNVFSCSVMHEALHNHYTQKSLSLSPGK

| Kd [1] [nM] | binding affinity for LPAM-1-Fc relative to human 2D-VCAM-1 [1] [fold] | fold improvement in binding relative to Q38L-2D-VCAM-1 [2] [fold] | Kd [3] [nM] | Kd [4] [nM] | binding affinity for VLA4-Fc relative to human 2D-VCAM-1 [4] [fold] | Binder |
| --- | --- | --- | --- | --- | --- | --- |
| 27.2 | 9 | 1 | 77 | 0.123 | 124 | 2D-VCAM-1 variant Clone 46 (ligand, also called Clone 046; not shown: His tag) FKIETTPESRYLAQIGDSVSLTCSTTGCESPFFSWRPQLDAPLNGKVTNEGTTSTLTMNPVSFGNEHSYLCTATCESRKLEKGIQVEIYSFPKDPEIHLSGPLEAGKPITVKCSVADVYPFDRLEIDLLKGDHLMKSQEFLEDADRKSLETKSLEVTFTPVIEDIGKVLVCRAKLHIDEMDSVPTVRQAVKELQVYISP |
| 0.439 | 565 | 74 | 1.2 | – | – | 2D-VCAM-1 variant Clone 146 (ligand, not shown: small tags and cut ends) FKIETTPESRYLAQIGDSVSLTCSTTGCESPLFFWRPLLDSPLNGKVTNEGTTSTLTMNPVSFGNEHSYLCTARCESRSLEKGIQVEIYSFPKDPEIHLSGPLEAGKPITVKCSVADVYPFDRLEIDLLKGDHLMKSQEFLEDADRKSLETKSLEVTFTPVIEDIGKVLVCRAKLHIDEMDSVPTVRQAVKELQVYISP |
| 6.54 | 38 | 17 | 40 | 0.148 | 103 | 2D-VCAM-1 variant Clone 47 (ligand, also called Clone 047; not shown: His tag) FKIETTPESRYLAQIGDSVSLTCSTTGCESPFFSWRPLLDSPLNGKVTNEGTTSTLTMNPVSFGNEHSYLCTATCESRKLEKGIQVEIYSFPKDPEIHLSGPLEAGKPITVKCSVADVYPFDRLEIDLLKGDHLMKSQEFLEDADRKSLETKSLEVTFTPVIEDIGKVLVCRAKLHIDEMDSVPTVRQAVKELQVYISP |
| 20.5 | 12 | 1 | – | 1.87 | 8 | Q38L-2D-VCAM-1 (ligand, also called Q38L 2D-VCAM-1 polypeptide; not shown: His tag) FKIETTPESRYLAQIGDSVSLTCSTTGCESPFFSWRTLIDSPLNGKVTNEGTTSTLTMNPVSFGNEHSYLCTATCESRKLEKGIQVEIYSFPKDPEIHLSGPLEAGKPITVKCSVADVYPFDRLEIDLLKGDHLMKSQEFLEDADRKSLETKSLEVTFTPVIEDIGKVLVCRAKLHIDEMDSVPTVRQAVKELQVYISP |
| 0.405 | 612 | 80 | 2.6 | 0.0501 | 303 | 2D-VCAM-1 variant Clone 59 (ligand, also called Clone 059; not shown: His tag) FKIETTPESRYLAQIGDSVSLTCSTTGCESPFFSWRPLLDSPLNGKVTNEGTTSTLTMNPVSFGNEHSYLCTATCESRKLEKGIQVEIYSFPKDPEIHLSGPLEAGKPITVKCSVADVYPFDRLEIDLLKGDHLMKSQEFFEDAAWKSLETKSLEVTFTPVIEDIGKVLVCRAKLHIDEMDSVPTVRQAVKELQVYISP |
